Results reported in US12552837B2, “Bicyclic peptide ligands with detectable moieties and uses thereof” (BicycleRD Limited, priority 2017, dated 2026).
*1 amine or outer side, *2 acyl side, *3 side chain or, on linkers, in order; H or OH if unused. Where a SMILES comes first, the peptide text is derived from it. Bridges are numbered along the chain shown (N, C = ends). [ ]: non-standard residue; d: D form. The star is where a group is joined. DOTA = O=C(O)CN1CCN(CC(=O)O)CCN(CC(=O)*)CCN(CC(=O)O)CC1; 1Nal = N[C@@H](Cc1cccc2ccccc12)C(=O)O; TBMB = c1c(C[*:1])cc(C[*:3])cc1C[*:2]; Tle = CC(C)(C)[C@H](N)C(=O)O

What was measured:
[1] = Organ distribution of 177Lu-labelled peptides in HT1080 xenograft mice; type: in vivo, BALB/c nu/nu mice; conditions: male, BALB/c nu/nu, mouse, HT1080 tumor, iv, total radioactivity; for tissue uptake at 1 h: 1 h p.i.
Description: (§1) General procedure for radiolabelling with Lu-177.
(§2) • 50 μL 0.25 M Na-Acetate buffer pH 5.2+0.1% Tween 20; • 10 μL [Lu-177]LuCl3 in 0.05 M HCl; and • 2 μL of the diluted peptide (2 nmols). […]
(§3) Organ distribution studies, general method: For organ distribution, the respective dose is prepared by dilution of the labeling reaction mixture in injection buffer (0.25 M Na-Acetate pH 7+0.05% Tween20). The ^177Lu-radiolabeled peptide was injected via the tail vein of the nu/nu mice (50 kBq per mouse), transplanted with the respective cell line. At indicated time points after injection the animals were sacrificed. Blood, heart, lung, spleen, liver, kidney, muscle, brain, femur, and the tumor were dissected, blotted dry, and weighed. The radioactivity was measured with a γ-counter (CobraII; Canberra Packard) along with a sample of the injection solution to calculate the percentage injected dose per gram of tissue (% ID/g).
(§4) The γ- and β-emitter ^177LuCl3 (NEZ307D, Perkin Elmer, in 0.04 M HCl), with a t1/2 of 6.7 days was used for both in vivo biodistribution and internalization studies. Labeling reactions were performed by adding 10 μL ^177LuCl3 (˜10 MBq) in 50 mM HCl, 2 μL of the diluted peptide (1 mM solution in 50 mM HEPES buffer pH 7+0.1% Tween 20 diluted from a 10 mM DMSO stock) to 50 μL 50 mM HEPES buffer pH 7 supplemented with 0.1% Tween 20. The reaction mixture was incubated at 98° C. for 10 minutes. The radiochemical yield (RCY) was determined using high performance liquid chromatography (HPLC) system equipped with a Latek P402 (Latek, Eppelheim, Germany), a HITACHI variable UV detector (absorbance was measured at 214 and 254 nm) and a gamma detector (Bioscan, WA, USA), using a Chromolith RP-18 column (100×4.6 mm; Merck). The analytical HPLC run was performed at 4 mL/min, using a linear A (0.1% trifluoroacetic acid (TFA) in water) to B (0.1% TFA in acetonitrile) gradient (0% B to 100% B in 6 min). Thin-layer chromatography was performed in parallel to confirm the results of the radio-HPLC. The RCY was generally >95%, and thus, the output of labelling reactions was directly diluted with the appropriate buffer and further unlabeled peptide if required, to use in subsequent experiments.
(§5) 5×10^6 cells of HT1080 were subcutaneously inoculated into the right trunk of male 6-week-old BALB/c nu/nu mice (Charles River Laboratories). The tumors were grown for approximately 1 week, to a maximum size of ˜200 mm^3. Respective doses were prepared by mixing a fixed quantity of 5 pmoles ^177Lu labelled peptides (at approx. 50 kBq) with different quantities of non-labelled peptide (derived from 1 mM stock solution in 0.25 M sodium acetate pH 7+0.05% Tween20) in 100 μL injection buffer (0.25 M sodium acetate pH 7+0.05% Tween20). 3 animals were used per dose and timepoint. Radiolabelled peptide solutions were injected via the tail vein, followed by sacrifice at various time points. Organs of interest (blood, heart, lung, spleen, liver, kidney, muscle, small intestine, brain, HT1080 tumor) were dissected, blotted dry, and weighed. The radioactivity was measured using a gamma counter and calculated as % ID/g.

HT1080 tumor = experiment: as above; type: in vivo, BALB/c nu/nu mice; conditions: 1 h post injection
Description: as §1, §2, §3, §4, §5

With `C[C@H](NC(=O)CN1CCN(CC(=O)O)CCN(CC(=O)O)CCN(CC(=O)O)CC1)C(=O)N[C@H]1CSCc2cc3cc(c2)CSC[C@H](NC(=O)[C@@H](C)NC(=O)[C@H](Cc2cccc4ccccc24)NC(=O)[C@H](CCC(=O)O)NC(=O)[C@H](CC(N)=O)NC(=O)[C@@H](C)NC1=O)C(=O)N[C@@H](CCC(=O)O)C(=O)N[C@@H](CC(=O)O)C(=O)N[C@@H](Cc1ccccc1)C(=O)N[C@@H](Cc1ccc(O)cc1)C(=O)N[C@@H](CC(=O)O)C(=O)N[C@@H](C(C)(C)C)C(=O)N[C@H](C(N)=O)CSC3` [I-23] ({DOTA}-AC[dA]NE[1Nal][dA]CEDFYD[Tle]C-NH2; linker 2-8-15 via TBMB) the tissue uptake at 1 h ([1]; 50 kBq per mouse) was 12 ± 2.37 %ID/g, the tissue uptake at 24 h ([1]; 50 kBq per mouse, 24 h p.i.) was 1.54 ± 0.06 %ID/g and the tissue uptake at 1 h [1] was 12.4 %ID/g. The “blocking of tumor uptake at a dose of 500 pmoles” value (HT1080 tumor) was “slightly blocked”, the “blocking of tumor uptake using 5 nmoles” value (HT1080 tumor) was “nearly completely blocked” and the “tumor uptake compared to 17-69-07-N144” value (HT1080 tumor) was “significantly higher tumor uptake”.
